In series [1] the target is T1, soybean ATP sulfurylase isoform 1 (GmATPS1) (Glycine max, UniProt Q8SAG1).
T1 construct: homodimer
T1 sequence (Q8SAG1 49-462): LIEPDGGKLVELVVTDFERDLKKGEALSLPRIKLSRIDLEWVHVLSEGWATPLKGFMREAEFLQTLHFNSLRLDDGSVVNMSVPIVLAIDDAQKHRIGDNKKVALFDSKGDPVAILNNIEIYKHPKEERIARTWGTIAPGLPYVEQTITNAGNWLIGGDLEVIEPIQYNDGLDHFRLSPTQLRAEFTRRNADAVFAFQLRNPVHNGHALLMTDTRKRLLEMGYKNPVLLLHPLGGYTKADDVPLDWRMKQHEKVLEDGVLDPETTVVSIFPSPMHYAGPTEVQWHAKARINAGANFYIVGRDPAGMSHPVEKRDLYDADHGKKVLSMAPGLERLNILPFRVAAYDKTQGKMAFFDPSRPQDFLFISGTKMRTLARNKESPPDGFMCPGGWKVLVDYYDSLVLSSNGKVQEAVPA
Briefly: dead-end inhibition kinetics, coupled spectrophotometric assay of APS synthesis. The format is biochemical.

Substrate in series [2]: O=S(=O)(O)O
Briefly: purified protein. Particulars: ATP, Mg2+ binds after ATP; chlorate competes with it.

Substrate in series [3]: Nc1ncnc2c1ncn2[C@@H]1O[C@H](COP(=O)(O)OP(=O)(O)OP(=O)(O)O)[C@@H](O)[C@H]1O
Briefly: purified protein. Conditions: Mg2+ binds first in the forward reaction.

Broadly, the Ki is the equilibrium dissociation constant of an inhibitor or competing ligand from its target. Low readings indicate tighter binding, high ones weaker binding. The molecule `[O-][Cl+2]([O-])O` [chlorate] displayed a Ki in series [1] of 103 ± 19 µM.

B1: soybean ATP sulfurylase isoform 1 (GmATPS1) (Glycine max) (protein)
chain: LIEPDGGKLVELVVTDFERDLKKGEALSLPRIKLSRIDLEWVHVLSEGWATPLKGFMREAEFLQTLHFNSLRLDDGSVVNMSVPIVLAIDDAQKHRIGDNKKVALFDSKGDPVAILNNIEIYKHPKEERIARTWGTIAPGLPYVEQTITNAGNWLIGGDLEVIEPIQYNDGLDHFRLSPTQLRAEFTRRNADAVFAFQLRNPVHNGHALLMTDTRKRLLEMGYKNPVLLLHPLGGYTKADDVPLDWRMKQHEKVLEDGVLDPETTVVSIFPSPMHYAGPTEVQWHAKARINAGANFYIVGRDPAGMSHPVEKRDLYDADHGKKVLSMAPGLERLNILPFRVAAYDKTQGKMAFFDPSRPQDFLFISGTKMRTLARNKESPPDGFMCPGGWKVLVDYYDSLVLSSNGKVQEAVPA
As a reminder, the Km is the substrate concentration at which the rate is half of its maximum. Regarding B1, the Km is 1,030±280 μM in the series “purified protein [2]” and 221 ± 41 µM in “purified protein [3]”.
